Patent US20190233526A1

Target: human C-C motif chemokine receptor 4 (CCR4) on tumor cell lines (human) (UniProt P51679)
Assay: cell-based or functional assay

Chain of UniProt P51679 (P51679 whole entry): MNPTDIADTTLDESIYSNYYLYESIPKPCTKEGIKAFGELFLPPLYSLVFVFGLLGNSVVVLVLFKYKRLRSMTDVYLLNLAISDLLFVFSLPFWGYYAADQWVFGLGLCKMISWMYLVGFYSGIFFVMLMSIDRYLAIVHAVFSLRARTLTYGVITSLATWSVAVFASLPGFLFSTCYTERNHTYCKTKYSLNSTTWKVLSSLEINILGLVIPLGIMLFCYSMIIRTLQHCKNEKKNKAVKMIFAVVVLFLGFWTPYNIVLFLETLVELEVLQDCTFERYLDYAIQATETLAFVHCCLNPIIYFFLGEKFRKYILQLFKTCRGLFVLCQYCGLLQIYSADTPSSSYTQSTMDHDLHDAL

Work on “CCR4 CAR (chimeric antigen receptor with mAb2-3 scFv, CD8 hinge and transmembrane domain, 4-1BB signaling domain and CD3 zeta signaling domain), expressed on transduced human CD3+ T cells” yielded a GM-CSF fold-induction, CAR T cells co-cultured with irradiated ATL55T cells for 24 hours of 5 fold, an IFN-gamma fold-induction, CAR T cells co-cultured with irradiated ATL55T cells for 24 hours of 2 fold and an IL-4 fold-induction, CAR T cells co-cultured with irradiated ATL55T cells for 24 hours of 9 fold. For the same substance, the IL-5 fold-induction, CAR T cells co-cultured with irradiated ATL55T cells for 24 hours was 4 fold, the IL-8 fold-induction, CAR T cells co-cultured with irradiated ATL55T cells for 24 hours was 4 fold and the IL-13 fold-induction, CAR T cells co-cultured with irradiated ATL55T cells for 24 hours was 3 fold. The MDC fold-induction, CAR T cells co-cultured with irradiated ATL55T cells for 24 hours was 2 fold, the TNF-alpha fold-induction, CAR T cells co-cultured with irradiated ATL55T cells for 24 hours was 8 fold and the TNF-beta fold-induction, CAR T cells co-cultured with irradiated ATL55T cells for 24 hours was 5 fold. The [3H]thymidine incorporation of CAR T cells co-cultured with irradiated CCR4-bearing target cells was greater than 3 fold, the increase of MIP-1α level on co-culture with target cells was 36% and the increase of MP-10 (so in the source) level on co-culture with target cells was 25%.
